What was measured:
[1] = target: human vascular endothelial growth factor (hVEGF) (human) (UniProt P15692); assay: blocking ELISA: biotin-VEGF with hIgG, capture on Avastin
hVEGF165 (human) = hVEGF165 (human) (UniProt P15692); assay: competition ELISA of hIgG, hVEGF165; axis 'Conc (nM)'
Sequence of hVEGF165 (human) (P15692 other isoform, or with tags, fused parts or gaps limits assumed): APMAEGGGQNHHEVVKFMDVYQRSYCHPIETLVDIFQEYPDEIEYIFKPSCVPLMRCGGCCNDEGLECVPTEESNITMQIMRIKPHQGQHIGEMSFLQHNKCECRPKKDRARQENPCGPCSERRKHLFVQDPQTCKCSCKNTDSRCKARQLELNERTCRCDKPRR

Sequence of human vascular endothelial growth factor (hVEGF) (human) (P15692 other isoform, or with tags, fused parts or gaps limits assumed): as above

- IC50 (read off the curve) [1]: 3 nM
- IC50 (read off the curve) (hVEGF165 (human)): 3 nM
Substance: G6 hIgG (antibody)

Reference: patent US20220033515A1
